For 13 molecules, koff, kon and Kd results are on record in patent US20250340623A1.

Holding throughout (details): remark: other sources report otherwise
For assay [1], the target named is alpha-synuclein fibrils, P37840. Kind of assay: SPR, captured mAb. In general terms: In SPR one partner is held on a chip, and binding of the other changes the refractive index at the surface.
For assay [2], the target named is monomeric alpha-synuclein, P37840. Description: SPR, captured mAb.
Assay [3] has the same target. Description: SPR, captured mAb; alpha-synuclein monomers.
In assay [4] the target is alpha-synuclein fibrils, P37840. Description: SPR, captured mAb; alpha-synuclein fibrils.
For assay [5] the target is unchanged. Description: SPR single-cycle kinetics, antibody captured on anti-mouse chip, alpha-synuclein fibrils injected.
The target in assay [6] is monomeric alpha-synuclein, P37840. Description: SPR single-cycle kinetics, antibody captured on anti-mouse chip, monomeric alpha-synuclein injected.
Assay [7] has the same target. Kind of assay: SPR, captured mAb; heterogeneous ligand model.
The target is the same in assay [8]. Description: SPR, captured mAb; steady-state model.

As usually defined, the koff is the first-order rate constant of dissociation. As a reminder, the kon is the rate constant with which the complex forms. A low value points to slow association. A word on the Kd: it is a measure of binding affinity in units of concentration.

B1: ACI-7079-2603F3-Ab1 (antibody, V domains shown)
VH: EVQLVESGGGLVQPKGSLKLSCAASGFTFNTYAMHWVRQAPGKGLEWVARIRSKGSNYATYYADSVKDRFTISRDDSQSMLYLQMNNLKTEDTAMYYCVRGGGDSWFAYWGQGTLVTVSA
VL: QIVLTQSPAIMSASPGERVTMTCTASSSVSYMHWYQQKSGTSPKRWIYDTSKLASGVPARFSGSGSGASYTLTISSMEAEDAATYYCQQWNSNPPTFGGGTQLAIK
Turning to B1, the koff in assay [1] was determined as 1.6e-08 s⁻¹; in assay [2] it was 0.0149 s⁻¹. Further, the kon was 7310 M⁻¹ s⁻¹ in assay [1] and 50800 M⁻¹ s⁻¹ in assay [2]. Also, the values for the Kd in assay [3] and in assay [4] were 293 nM and 0.002 nM, respectively.

B2: ACI-7067-1113D10-Ab1 (antibody, V domains shown)
VH: EVQLVESGGGLVQPKGSLKLSCAASGFTFNTYALHWVRQAPGKGLEWVARIRSKSSNYATYYADSVKDRFTISRDDSQSMLYLQMNNLKTEDTGMYYCVRGGVSPFDYWGQGTTLTVSS
VL: QIVLTQSPAIMSASPGEKVTMTCSASSSVSYMHWYQQKSGTSPKRWIYDTSKLASGVPARFSGSGSGTSYSLTISSMEAEDSATYYCQQWSNNPPTFGGGTKLEIK
For the molecule B2, in assay [1], the dissociation rate constant (koff) worked out at 4.16e-07 s⁻¹ and the kon came to 6940 M⁻¹ s⁻¹. Moreover, the Kd in assay [4] turned out to be 0.06 nM.

B3: ACI-7067-1108B11-Ab2 (antibody, V domains shown)
VH: EVQLVESGGGLVQPKGSLKLSCAASGFTFNTYAMHWVRQAPGKGLEWVARIRSKGSNYATNYADSVKDRFTISRDDSQSMLYLQMNNLKTEDTAMYYCVRGHGSSYFSYWGQGTLVTVSA
VL: QIVLTQSPAIMSASPGERITMTCSANSSVTYMHWYQQKSGTSPKRWIYDTSNLASGVPARFSGSGSGTSYSLTISSMEAEDAATYYCQQWKSHPPTFGAGTKLELK
As to B3, in assay [1], the Kd was 18.6 nM, the koff is 0.00205 s⁻¹ and the kon came to 251000 M⁻¹ s⁻¹. In assay [2], this molecule had a Kd of 8.1 nM, a koff of 0.00154 s⁻¹ and an on-rate constant (kon) of 191000 M⁻¹ s⁻¹.

B4: ACI-7079-2501D10-Ab1 (antibody, V domains shown)
VH: EVQLVESGGGLVQPKGSLKVSCAASGFTFKTYAMHWVRQAPGKGLEWVARIRSENSNFAKYYADSVKDRFTISRDDSQSMLYLQMNNLKTEDTAMYYCVRGYNGSSLDYWGQGTTLTVSS
VL: QIVLTQSPAIMSAFPGERVTMTCSASSSVNYMHWYQQKSGTSPKRWIYDTSKLASGVPARFSGGGSGTSYSLTISNMEAEDAATYYCQQWRSNPPTFGGGTKLEIK
B4: in assay [1], the Kd was 24.7 nM, the koff came out at 0.000427 s⁻¹ and the kon stood at 17300 M⁻¹ s⁻¹. For the same molecule, in assay [2], the Kd is 1.6 nM, the koff stood at 0.00043 s⁻¹ and the kon amounted to 264000 M⁻¹ s⁻¹.

B5: ACI-7067-1101C8-Ab2 (antibody, V domains shown)
VH: EVQLVESGGGLVQPKGSLKLSCAASGFSFNIYAMNWVRQAPGKGLEWVARIRSKSNNYATYYADSVKDRFTISRADSESMLYLQMNNLKTEDTAMYYCVRVGLRFYAMDYWGQGTSVTVSS
VL: DVLMTQTPLSLPVSLGDQASISCRSSQSIVHSNGNTYLEWYLQKPGQSPKLLIYKVSNRFSGVPDRFSGSGSGTDFTLKISRVEAEDLGVYYCFQGSQGPLTFGAGTKLELK
For the molecule B5, the Kd amounted to 2.9 nM in assay [1], 1.6 nM in assay [5], 38.8 nM in assay [6] and 43.7 nM in assay [8]. The koff in assay [1] amounted to 0.000283 s⁻¹; in assay [5] it was 0.00024 s⁻¹; in assay [6], 0.019 s⁻¹; in assay [7], 0.0265 s⁻¹. Also, the kon in assay [1] is 176000 M⁻¹ s⁻¹; in assay [7] it was 55500 M⁻¹ s⁻¹.

B6: ACI-7079-2501G2-Ab2 (antibody, V domains shown)
VH: EVQLVESGGGLVQPKGSLKLSCAASGFNFNTYAMNWVRQAPGKGLEWVARIRTKSNNFATYYAHSVKDRFTISRDDSESMLYLQMNNLKTEDTAMYYCVRQGLAYYAMDYWGQGTSVTVSS
VL: DVLMTQTPLSLPVSLGDQVSISCRSSQTIVHSNGNTYLEWYLQKPGQSPKLLIYKVSNRFSGVPDRFSGSGSGTDFTLKISRVEAEDLGVYYCFQGSQGPLTFGAGTKLELK
With B6, in assay [1], the Kd came out at 27.8 nM, the koff was 0.000528 s⁻¹ and the kon is 19000 M⁻¹ s⁻¹. In assay [2], this molecule came in with a Kd of 2.9 nM, a koff of 0.00084 s⁻¹ and an association rate constant (kon) of 291000 M⁻¹ s⁻¹.

B7: ACI-8033-18D12-Ab1 (antibody, V domains shown)
VH: QVQLQQPGAELVKPGASVKMSCKASGYTFTSYWITWVRQRPGQGLDWIGDIYPGGGVTNYNEKFKTKATLTVDTSSSTAYMHLSSLTSEDSAVYFCATAQTTFAHWGQGTLVTVSA
VL: DVLMTQTPLSLPVSLGDQASISCRSSQNIAHNNGNTYLEWYLQKPGQSPKLLIYKVSNRFSGVPDRFSGSGSGTDFTLKISRVEAEDLGVYYCFQGSHVPRTFGGGTKLEIK
Take B7: in assay [2], the koff turned out to be 0.26 s⁻¹ and the kon was found to be 8.25e+07 M⁻¹ s⁻¹. The same molecule had a Kd in assay [3] of 3.2 nM.

B8: ACI-7088-4317A4-Ab1 (antibody, V domains shown)
VH: EVQLQQSGAELVRPGASVKLSCTASGFNIKDDYMHWVKQRPEQGLEWIGWIDPENGDTEYASKFQGKATMTADTSSNTAYLQLSSLTSEDTAVYYCKTWGTTQALFPYWGQGTLVTVSA
VL: DIVMTQSQKFMYTSVGDRVSITCKASQNVGNAVGWYQQKAGQSPKLLIHSASNRYTGVPDRFTGTGSGTDFTLTINNMQSEDLADYFCQQYRSYPLTFGAGTKLELK
In the case of B8, the off-rate (koff) in assay [1] stood at 0.000998 s⁻¹; in assay [2], 0.012 s⁻¹. Moreover, the kon was determined as 337000 M⁻¹ s⁻¹ in assay [1] and 3280 M⁻¹ s⁻¹ in assay [2]. The values for the Kd in assay [3] and in assay [4] were 3660 nM and 3 nM, respectively.

B9: ACI-7067-1116F2-Ab1 (antibody, V domains shown)
VH: DVQLQESGPGFVKPSQSLSLTCSVTGYSITRGFYWNWIRQFPGNKLEWMGYISDDGNSNYNPSLKNRISITRDTFKNQVFLRLNSVTTEDTATYYCTRGDLLWGQGTTLTVSS
VL: not shown
For B9, in assay [1], the Kd amounted to 55.1 nM, the koff worked out at 0.000458 s⁻¹ and the kon worked out at 8300 M⁻¹ s⁻¹. Besides, in assay [2], the Kd was 4.9 nM, the koff worked out at 0.000232 s⁻¹ and the kon was 47000 M⁻¹ s⁻¹.

B10: ACI-7079-2503C6-Ab1 (antibody, V domains shown)
VH: DVQLQESGPGLVKPSQSLSLTCSVTGYSITSGYYWNWIRLFPGNKLEWLGYINYDGSNNFNPSLKNRISITRDTSKNQFFLKLNSVTSEDTATYFCLRGDWDWGQGTLVTVSA
VL: not shown
Take B10: in assay [2], the koff is 0.00012 s⁻¹ and the kon worked out at 40500 M⁻¹ s⁻¹. The molecule also gave a Kd in assay [3] of 3 nM.

B11: ACI-7067-1111B12-Ab2 (antibody, V domains shown)
VH: QVQLLQPGTALVMPGASVKLSCKASGYTFTTYWMHWVKQRPGQGLEWIGNINPINGGSNYNEKFKSKASLTVDKSSSTAYMQLSSLTSEDSAVYYCVIAMDYWGQGTSVTVSS
VL: DIQMTQSPSSLSASLGERVSLTCRASQDIGISLNWFQQEPDGTIKRLIYATSSLDSGVPKRFSGNRSGSDYSLTISSLESEDFADYYCLQFASSPLTFGAGTKLELK
For the molecule B11, in assay [1], the Kd is 39.2 nM, the dissociation rate constant (koff) stood at 0.00101 s⁻¹ and the kon stood at 26300 M⁻¹ s⁻¹. Also, in assay [2], the Kd was found to be 8.1 nM, the dissociation rate constant (koff) was 0.0014 s⁻¹ and the kon turned out to be 172000 M⁻¹ s⁻¹.

B12: ACI-7067-1112H8-Ab2 (antibody, V domains shown)
VH: EVKLEESGGGLVQPGGSMKLSCAASGFTFTDAWMNWVRQSPEKGLEWIAEIRNKAHNYATYYAESVKGRFDISGDDSKSSVYLQMNNLRVEDTGIYYCTIYSYWGPGTLVTVSA
VL: SIVMTQTPKFLLMSPGDRVTMTCTASQSVSNYVAWYQQKPGQSPKLLIYSASNRFTGVPDRFTGSGYGTDFTFTINTVQTEDMAVYFCQQDYTSPYTFGGGTKLEIK
Turning to B12, in assay [1], the Kd worked out at 18.7 nM, the koff turned out to be 0.00245 s⁻¹ and the kon was 285000 M⁻¹ s⁻¹. Further, in assay [2], the Kd was found to be 6.3 nM, the off-rate constant (koff) is 0.00158 s⁻¹ and the kon came to 250000 M⁻¹ s⁻¹.

B13: ACI-7079-2501B11-Ab3 (antibody, V domains shown)
VH: QVQLQQSGPELVKPGASVKISCKASGYAFSSFWMNWMKQRPGKGLEWIGRIYPGDGDAHYNGEFKGRATLTADKSSSTAYMQLSSLTSEDSAVYFCARKGDFYGSNYDYWGQGTTLTVSS
VL: QAVVTQESALTTSPGETVTLTCRSSTGAVTTSNYANWVQEKPDHLFTGLIGGTNNRAPGVPARFSGSLIGDKAALTITGAQTEDEAIYFCALWYSNHLVFGGGTRLTVL
For the molecule B13, in assay [1], the Kd is 31.8 nM, the koff came to 0.000347 s⁻¹ and the kon stood at 10900 M⁻¹ s⁻¹. In assay [2], the Kd was found to be 2.4 nM, the koff is 0.000335 s⁻¹ and the kon was 141000 M⁻¹ s⁻¹.
